# Test results reported in patent US7410949.
# Primed or numbered codes have the meaning given here. [ ]: non-standard residue; d: D form. Pqa″ = not defined here
# Columns and labels:
# Y4R = experiment: cell-based or functional assay
# Y1R = experiment: cell-based or functional assay
# Sequence of Y1R (P25929 whole entry): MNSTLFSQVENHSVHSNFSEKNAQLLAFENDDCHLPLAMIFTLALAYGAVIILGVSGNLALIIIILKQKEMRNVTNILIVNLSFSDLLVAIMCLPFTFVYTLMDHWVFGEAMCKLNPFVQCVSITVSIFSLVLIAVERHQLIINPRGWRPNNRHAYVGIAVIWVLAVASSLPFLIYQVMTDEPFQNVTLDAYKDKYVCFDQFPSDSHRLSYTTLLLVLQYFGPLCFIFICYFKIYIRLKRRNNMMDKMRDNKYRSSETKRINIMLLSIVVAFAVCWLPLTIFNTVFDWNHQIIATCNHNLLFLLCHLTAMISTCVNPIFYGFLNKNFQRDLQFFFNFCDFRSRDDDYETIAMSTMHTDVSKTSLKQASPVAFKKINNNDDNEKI
Binder,Y4R EC50(nM) FLIPR (Y4R) [nM],Y1R EC50(nM) FLIPR (Y1R) [nM]
H-IK[Pqa″]RHWLNLVTRQRY-NH2 (reading uncertain; also: printed as H-Ile-Lys-Pqa-Arg-His-Trp-Leu-Asn-Leu-Val-Thr-Arg-Gln-Arg-Tyr-NH2) [H-Ile-Lys-Pqa-Arg-His-Trp-Leu-Asn-Leu-Val-Thr-Arg-Gln-Arg-Tyr-NH2],> 5000,
H-IK[Pqa″]AHWLNLVTRQRY-NH2 (reading uncertain; also: printed as H-Ile-Lys-Pqa-Ala-His-Trp-Leu-Asn-Leu-Val-Thr-Arg-Gln-Arg-Tyr-NH2) [H-Ile-Lys-Pqa-Ala-His-Trp-Leu-Asn-Leu-Val-Thr-Arg-Gln-Arg-Tyr-NH2],> 5000,
H-IK[Pqa″]RHYANLVTRQRY-NH2 (reading uncertain; also: printed as H-Ile-Lys-Pqa-Arg-His-Tyr-Ala-Asn-Leu-Val-Thr-Arg-Gln-Arg-Tyr-NH2) [H-Ile-Lys-Pqa-Arg-His-Tyr-Ala-Asn-Leu-Val-Thr-Arg-Gln-Arg-Tyr-NH2],> 5000,> 5000
H-IK[Pqa″]RHALNLVTRQRY-NH2 (reading uncertain; also: printed as H-Ile-Lys-Pqa-Arg-His-Ala-Leu-Asn-Leu-Val-Thr-Arg-Gln-Arg-Tyr-NH2) [H-Ile-Lys-Pqa-Arg-His-Ala-Leu-Asn-Leu-Val-Thr-Arg-Gln-Arg-Tyr-NH2],> 5000,> 5000
